Assay results taken from patent US20060024807.

Assays:
[1] = biological target: T1, Known PK substrate sequence PLARTLSVAGLPGK (Ca-/calmodulin-dependent PK substrate)
T1 chain: PLARTLSVAGLPGK

[2] = biological target: T2, Known PK substrate sequence EAAEAEPAEPSSPAAEAEGA (p42/p44 MAP kinase substrate)
T2 chain: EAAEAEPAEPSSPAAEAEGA

[3] = biological target: T3, Known PK substrate sequence RRKDLHDDEEDEAMSITA (casein kinase I substrate)
T3 chain: RRKDLHDDEEDEAMSITA

[4] = biological target: T4, Known PK substrate sequence KKRPQRATSNVFS (myosin light chain kinase substrate)
T4 chain: KKRPQRATSNVFS

[5] = biological target: T5, Known PK substrate sequence LMECRNSPVAKT (p42/p44 MAP kinase substrate)
T5 chain: LMECRNSPVAKT

[6] = biological target: T6, Known PK substrate sequence APRTPGGRR (p42/p44 MAP kinase substrate)
T6 chain: APRTPGGRR

[7] = biological target: T7, Known PK substrate sequence RRRDDDSDDD (casein kinase II substrate)
T7 chain: RRRDDDSDDD

[8] = biological target: T8, Known PK substrate sequence PKTPKKAKKL (p34 cdc-kinase substrate)
T8 chain: PKTPKKAKKL

[9] = biological target: T9, Known PK substrate sequence KKKKEEIYFFF (csk tyrosine kinase substrate)
T9 chain: KKKKEEIYFFF

[10] = biological target: T10, Known PK substrate sequence SGQLIDSMANSFVGTRS (raf-1 kinase substrate)
T10 chain: SGQLIDSMANSFVGTRS

[11] = biological target: T11, Known PK substrate sequence QKRPSQRSK (protein kinase C substrate)
T11 chain: QKRPSQRSK

[12] = biological target: T12, Known PK substrate sequence RKISASEFDRPLR (cGMP-dependent protein kinase substrate)
T12 chain: RKISASEFDRPLR

[13] = biological target: T13, Known PK substrate sequence Ac-SPGRRRRK (cdc2-kinase substrate)
T13 chain: SPGRRRRK

[14] = biological target: T14, Known PK substrate sequence LSSLRASTSKSGGQK (S6 kinase substrate)
T14 chain: LSSLRASTSKSGGQK

[15] = biological target: T15, Known PK substrate sequence YIYGSFK (c-src tyrosine kinase substrate)
T15 chain: YIYGSFK

[16] = biological target: T16, Known PK substrate sequence KKKLPATGDYMNMSPVGD (insulin receptor tyrosine kinase substrate)
T16 chain: KKKLPATGDYMNMSPVGD

[17] = biological target: T17, Known PK substrate sequence KKRFSFKKSFKLSGFSFK (protein kinase C substrate)
T17 chain: KKRFSFKKSFKLSGFSFK

[18] = biological target: T18, Known PK substrate sequence LRRASLG (cAMP-dependent protein kinase substrate)
T18 chain: LRRASLG

[19] = biological target: T19, Known PK substrate sequence KKALRRQETVDAL (Ca-/calmodulin-dependent PK substrate)
T19 chain: KKALRRQETVDAL

[20] = biological target: T20, Known PK substrate sequence EAIYAAPFAKKK (abl tyrosine kinase substrate)
T20 chain: EAIYAAPFAKKK

B1: MLSK-1 (Murine Lymph node Stromal cell Kinase 1) (protein)
chain: MESVALLQRPSQAPSASALASESARPLADGLIKSPKPLMKKQAVKRHHHKHNLRHRYEFLETLGKGTYGKVKKARESSGRLVAIKSIRKDKIKDEQDLLHIRREIEIMSSLNHPHIIAIHEVFENSSKIVIVMEYASRGDLYDYISERPRLSERDARHFFRQIVSALHYCHQNGIVHRDLKLENILLDANGNIKIADFGLSNLYHKGKFLQTFCGSPLYASPEIVNGKPYVGPEVDSWSLGVLLYILVHGTMPFDGQDHKTLVKQISNGAYREPPKPSDACGLIRWLLMVNPTRRATLEDVASHWWVNWGYTTGVGEQEALREGGHPSGDFGRASMADWLRRSSRPLLENGAKVCSFFKQHVPGGGSTVPGLERQHSLKKSRKENDMAQNLQGDPAEDTSSRPGKSSLKLPKGILKKKSSTSSGEVQEDPQELRPVPDTPGQPVPAVSLLPRKGILKKSRQRESGYYSSPEPSESGELLDASDVFVSGDPVEQKSPQASGLLLHRKGILKLNGKFSRTALEGTTPSTFGSLDQLASSHPAARPSRPSGAVSEDSILSSESFDQLDLPERLPETPLRGCVSVDNLRGLEQPPSEGLKRWWQESLGDSCFSLTDCQEVTAAYRQALGICSKLS
Phosphorylation by MLSK-1 (% of max.) [1]: 10.3 % of max. | Phosphorylation by MLSK-1 (% of max.) [2]: 0 % of max. | Phosphorylation by MLSK-1 (% of max.) [3]: 14.1 % of max. | Phosphorylation by MLSK-1 (% of max.) [4]: 72 % of max. | Phosphorylation by MLSK-1 (% of max.) [5]: 3.8 % of max. | Phosphorylation by MLSK-1 (% of max.) [6]: 88.6 % of max. | Phosphorylation by MLSK-1 (% of max.) [7]: 17.6 % of max. | Phosphorylation by MLSK-1 (% of max.) [8]: 82 % of max. | Phosphorylation by MLSK-1 (% of max.) [9]: 82.1 % of max. | Phosphorylation by MLSK-1 (% of max.) [10]: 43.1 % of max. | Phosphorylation by MLSK-1 (% of max.) [11]: 75 % of max. | Phosphorylation by MLSK-1 (% of max.) [12]: 62.2 % of max. | Phosphorylation by MLSK-1 (% of max.) [13]: 94.8 % of max. | Phosphorylation by MLSK-1 (% of max.) [14]: 66.6 % of max. | Phosphorylation by MLSK-1 (% of max.) [15]: 66.6 % of max. | Phosphorylation by MLSK-1 (% of max.) [16]: 33.7 % of max. | Phosphorylation by MLSK-1 (% of max.) [17]: 100 % of max. | Phosphorylation by MLSK-1 (% of max.) [18]: 65.9 % of max. | Phosphorylation by MLSK-1 (% of max.) [19]: 20.9 % of max. | Phosphorylation by MLSK-1 (% of max.) [20]: 69.3 % of max.
